Molecular target: nucleosome core particle labeled with H4Kc20me2
Experiment: native gel or EMSA

Question: For “human Origin Recognition Complex subunit 1 BAH domain, R105Q mutant (from UniProt Q13415 45-171) (domain or fragment)”, which fold reduction of affinity against wild type hORC1BAH is on record?
Answer: > 2 fold

— publication PMC4654454 (ACS chemical biology, 2015)
